Test results published in patent publication US8236540B2, “Isolated luciferases and the use thereof” (Bayer Intellectual Property GmbH, priority 2000, dated 2012).

Key:
[1] = test system: Lu164; assay: Coelenterazine derivatives as substrates of Lu164 (luminescence with CHO-pcDNA3-Lu164 supernatant); assay type: biochemical, Metridia longa; settings: 10 μl derivative (10^-4 M) + 10 μl supernatant of CHO-pcDNA3-Lu164, 8.7 kV for 30 seconds
Procedure: In order to identify substrates for Lu164, 10 μl solutions of different coelenterazine derivatives (10^−4 M) were in each case incubated with 10 μl of supernatant from CHO-pcDNA3-Lu164 cell lines and the luminescence was measured. The coelenterazines were obtained from Molecular Probes (USA).

[2] = test system: LuAL; assay: Coelenterazine derivatives as substrates of LuAL; assay type: biochemical, Metridia longa; settings: coelenterazine derivatives 10^-4 M
[3] = test system: Lu22; assay: Coelenterazine derivatives as substrates of Lu22; assay type: biochemical, Metridia longa; settings: coelenterazine derivatives 10^-4 M
[4] = Luciferase activity (chemiluminescence) of bacterial lysate after adding coelenterazine; assay type: biochemical; settings: 5 μl E. coli BL21(DE3) lysate (5 mg/ml), pTriplEx2 vectors, coelenterazine 10^-4 M, 9.5 kV for 30 seconds
Procedure: The bacterial expression took place in the E. coli strain BL21(DE3) as a result of transforming the bacteria with the expression plasmids pTriplEX2-Lu164, pTriplEX2-LuAL and pTriplEX2-Lu22. The transformed bacteria were incubated at 37° C. for 3 hours in LB medium and expression was induced for 4 hours by adding IPTG to a final concentration of 1 mM. The induced bacteria were harvested by centrifugation, resuspended in PBS and disrupted by ultrasonication. Coelenterazine (10^−4 M in methanol) or luciferin (Firefly Luciferin) was added to 5 μl of the lysate (5 mg/ml) and the chemiluminescence was measured.
The measurement, in RLU (relative light units), took place at 9.5 kV for 30 seconds. Values of 230 000, 320 000 and 260 000 RLU were measured in the case of Lu1 64, LuAL and Lu22, respectively. The enzymes were expressed in E. coli BL21(DE3) using the vectors pTriplEx2-Lu164, pTriplEx2-LuAL and pTriplEx2-Lu22.

[5] = Luciferase activity (chemiluminescence) after constitutive eukaryotic expression in transiently transfected CHO cells; assay type: cell-based; settings: CHO cells transiently transfected with pcDNA3 vectors, 5 μl, coelenterazine 10^-4 M, 9.5 kV for 30 seconds, room temperature
Procedure: Constitutive eukaryotic expression was affected in CHO cells by transfecting the cells with the expression plasmids pcDNA3-Lu164, pcDNA3-LuAL and pcDNA3-Lu22 in transient experiments. For this, 10 000 cells in DMEM-F12 medium were plated, per well, in 96-well microtiter plates and incubated overnight at 37° C. The transfection was effected using the Fugene 6 kit (Roche) in accordance with the manufacturer's instructions. The transfected cells were incubated overnight at 37° C. in DMEM-F12 medium. The chemiluminescence in the medium (5 ul) and the cell lysate (5 μl) was measured for 30 seconds at 9.5 kV in a luminometer, at room temperature, after adding coelenterazine (10^−4 M in methanol).
Values of 680 000, 670 000 and 510 000 RLU (relative light units) were measured in the case of Lu1 64, LuAL and Lu22, respectively. The expression was effected in CHO cells using the vectors pcDNA3-Lu164, pcDNA3-LuAL and pcDNA3-Lu22.

With `Oc1ccc(Cc2nc3c(Cc4ccccc4)nc(-c4ccc(O)cc4)cn3c2O)cc1` [coelenterazine] the “substrate suitability for Lu164 (luminescence)” value [1] was “optimal substrate”, the “substrate suitability for LuAL (luminescence)” value [2] was “optimal substrate” and the “substrate suitability for Lu22 (luminescence)” value [3] was “optimal substrate”.

B1: Lu22: coelenterazine-dependent secreted luciferase from Metridia longa, amino acid sequence SEQ ID NO: 6 (protein, listed as Metridia longa)
chain: MGVKLIFAVVCVAVAQAATIQENFEDIDLVAIGGSFASDVDANRGGHGGHPGKKMPKEVLMEMEANAKRAGCHRGCLVCLSHIKCTAQMQKFIPGRCHSYAGDKDSAQGGIAGGAIVDIPEIAGFKEMKPMEQFIAQVDLCEDCTTGCLKGLANVHCSDLLKKWLPSRCKTFASKIQSQVDTIKGLAGDR
For B1, the “chemiluminescence, RLU (relative light units)” value [4] was 260 000 RLU and the “chemiluminescence, RLU (relative light units)” value [5] was 510 000 RLU.

B2: Lu164: coelenterazine-dependent secreted luciferase from Metridia longa, amino acid sequence SEQ ID NO: 4 (protein, listed as Metridia longa)
chain: MDIKVVFTLVFSALVQAKSTEFDPNIDIVGLEGKFGITNLETDLFTIWETMEVMIKADIADTDRASNFVATETDANRGKMPGKKLPLAVIMEMEANAFKAGCTRGCLICLSKIKCTAKMKVYIPGRCHDYGGDKKTGQAGIVGAIVDIPEISGFKEMAPMEQFIAQVDRCASCTTGCLKGLANVKCSELLKKWLPDRCASFADKIQKEVHNIKGMAGDR
In the case of B2, the “chemiluminescence, RLU (relative light units)” value [4] is reported as 230 000 RLU and the “chemiluminescence, RLU (relative light units)” value [5] is reported as 680 000 RLU.

B3: LuAL: coelenterazine-dependent secreted luciferase from Metridia longa, amino acid sequence SEQ ID NO: 2 (protein, listed as Metridia longa)
chain: MDMRVIFALVFSSLVQAKSTEFDPNINIVGLEGKFGITNLETDLFTIWETMDVIKSDITDTDRVSNFVATETDANRGKMPGKKLPLAVIMEMEANAFKAGCTRGCLICLSKIKCTAKMKVYIPGRCHDYGGDKKTGQAGIVGAIVDIPEISGFKEMAPMEQFIAQVDLCATCTTGCLKGLANVKCSELLKKWLPGRCASFADKIQKEVHNIKGMAGDR
For B3, the “chemiluminescence, RLU (relative light units)” value [4] was 320 000 RLU and the “chemiluminescence, RLU (relative light units)” value [5] was 670 000 RLU.
